Tests used:
[1] = target: ISG65 1125G (residues 24-385) with C-terminal AviTag and His10 tag, biotinylated (T. brucei EATRO1125); experiment: SPR; biotinylated ISG65G (CHO, ~800 RU) on a streptavidin chip (SA); C3b and C3c from 500 nM in two-fold dilutions to 15.6 nM; 30 ul/min, 25 C, 20 mM HEPES pH 7.4, 150 mM NaCl, 0.005% TWEEN-20; C3b fitted to a two-state reaction model, C3c to a 1:1 Langmuir model
[2] = target: ISG65 1125G (residues 24-385), expressed with kifunensine and deglycosylated with Endo Hf (T. brucei EATRO1125); experiment: SPR; ISG65 1125G immobilised by amine coupling (345 RU) on a CM5 chip; C3d from 4 uM in two-fold serial dilutions; 30 ul/min, 25 C, 20 mM HEPES pH 7.4, 300 mM NaCl, 0.05% TWEEN-20; 1:1 Langmuir model
Human complement C3c = target: T1, Human complement C3c (human, UniProt P01024); experiment: SPR; biotinylated ISG65G (CHO, ~800 RU) immobilised on a streptavidin chip (Series S SA); C3b and C3c from 500 nM in two-fold dilutions to 15.6 nM; 30 ul/min, 25 C, 20 mM HEPES pH 7.4, 150 mM NaCl, 0.005% TWEEN-20; C3b fitted to a two-state reaction model, C3c to the 1:1 Langmuir model; averages of three flow paths with different immobilisation levels; details: both partners purified
T1 construct: source: bought: Complement Technology; copies: + +
T1 sequence (P01024 23-667, chain 1 of 3): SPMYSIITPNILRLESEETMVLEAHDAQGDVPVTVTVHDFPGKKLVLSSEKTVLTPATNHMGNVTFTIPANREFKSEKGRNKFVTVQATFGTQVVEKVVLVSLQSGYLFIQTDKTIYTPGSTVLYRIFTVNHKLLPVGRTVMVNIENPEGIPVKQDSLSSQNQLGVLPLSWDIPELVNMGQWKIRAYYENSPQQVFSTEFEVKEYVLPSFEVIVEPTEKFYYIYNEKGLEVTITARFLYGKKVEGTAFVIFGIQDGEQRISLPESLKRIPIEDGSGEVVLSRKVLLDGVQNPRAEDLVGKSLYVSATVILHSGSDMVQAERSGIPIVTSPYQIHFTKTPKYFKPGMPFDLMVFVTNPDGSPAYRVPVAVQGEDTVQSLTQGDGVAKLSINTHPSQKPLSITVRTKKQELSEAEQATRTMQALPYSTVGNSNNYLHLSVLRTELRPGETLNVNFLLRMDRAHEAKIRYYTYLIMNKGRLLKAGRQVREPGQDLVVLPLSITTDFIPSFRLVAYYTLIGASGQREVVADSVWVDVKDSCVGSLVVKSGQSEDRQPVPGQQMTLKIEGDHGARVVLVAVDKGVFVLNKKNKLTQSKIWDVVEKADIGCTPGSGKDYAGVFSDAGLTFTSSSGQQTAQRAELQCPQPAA
T1 sequence (P01024 749-954, chain 2 of 3): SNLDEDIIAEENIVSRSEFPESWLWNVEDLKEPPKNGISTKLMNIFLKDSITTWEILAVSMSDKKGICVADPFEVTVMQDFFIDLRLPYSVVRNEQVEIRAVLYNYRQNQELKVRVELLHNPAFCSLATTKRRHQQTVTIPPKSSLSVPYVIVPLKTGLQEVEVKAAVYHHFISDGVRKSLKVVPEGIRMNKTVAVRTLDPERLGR
T1 sequence (P01024 1321-1663, chain 3 of 3): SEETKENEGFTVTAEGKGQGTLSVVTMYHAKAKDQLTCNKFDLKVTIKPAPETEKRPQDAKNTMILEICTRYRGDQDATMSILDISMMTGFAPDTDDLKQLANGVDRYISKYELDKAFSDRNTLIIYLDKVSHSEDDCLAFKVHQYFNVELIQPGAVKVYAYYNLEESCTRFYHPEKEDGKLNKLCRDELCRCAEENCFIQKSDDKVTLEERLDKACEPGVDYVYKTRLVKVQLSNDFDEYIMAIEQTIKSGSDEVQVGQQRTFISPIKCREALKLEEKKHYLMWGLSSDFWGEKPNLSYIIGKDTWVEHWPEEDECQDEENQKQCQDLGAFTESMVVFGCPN

Human complement C3b = target: T2, Human complement C3b (human, UniProt P01024); experiment: as above; details: both partners purified
T2 construct: source: bought: Complement Technology
T2 sequence (P01024 23-667, chain 1 of 2): as the sequence (P01024 23-667, chain 1 of 3) above
T2 sequence (P01024 749-1663, chain 2 of 2): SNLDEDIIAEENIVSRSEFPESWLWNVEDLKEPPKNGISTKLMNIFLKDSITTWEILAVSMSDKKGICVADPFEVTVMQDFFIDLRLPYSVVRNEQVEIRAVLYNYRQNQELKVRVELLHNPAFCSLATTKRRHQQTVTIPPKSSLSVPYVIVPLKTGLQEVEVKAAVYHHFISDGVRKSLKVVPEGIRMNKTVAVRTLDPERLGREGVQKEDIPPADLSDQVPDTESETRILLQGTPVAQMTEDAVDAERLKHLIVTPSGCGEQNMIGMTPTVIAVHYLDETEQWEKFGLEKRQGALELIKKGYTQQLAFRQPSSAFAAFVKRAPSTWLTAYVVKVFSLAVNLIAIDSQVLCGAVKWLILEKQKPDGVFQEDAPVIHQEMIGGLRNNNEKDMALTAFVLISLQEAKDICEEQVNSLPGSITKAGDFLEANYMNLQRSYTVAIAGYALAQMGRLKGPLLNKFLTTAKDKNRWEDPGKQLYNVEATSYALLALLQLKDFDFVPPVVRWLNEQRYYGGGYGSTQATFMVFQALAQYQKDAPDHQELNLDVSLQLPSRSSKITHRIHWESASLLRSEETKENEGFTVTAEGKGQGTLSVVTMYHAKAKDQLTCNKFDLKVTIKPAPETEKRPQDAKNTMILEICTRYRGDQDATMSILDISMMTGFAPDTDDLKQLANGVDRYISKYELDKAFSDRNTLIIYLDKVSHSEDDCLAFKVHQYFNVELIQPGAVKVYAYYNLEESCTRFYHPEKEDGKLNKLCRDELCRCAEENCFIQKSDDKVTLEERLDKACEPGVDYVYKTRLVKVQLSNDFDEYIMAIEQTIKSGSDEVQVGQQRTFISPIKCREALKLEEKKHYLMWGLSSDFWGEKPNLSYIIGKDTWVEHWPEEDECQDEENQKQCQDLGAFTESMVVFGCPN

[3] = target: T3, Complement C3d (residues 996-1303 of H. sapiens C3, C1010A) (human, UniProt P01024 996-1303, C1010A); experiment: SPR; ISG65 1125G immobilised by amine coupling (345 RU) on a CM5 chip; C3d from 4 uM in two-fold dilutions; 30 ul/min, 25 C, 20 mM HEPES pH 7.4, 300 mM NaCl, 0.05% TWEEN-20; 1:1 Langmuir model; averages of three repeats on the same flow path; details: both partners purified
T3 construct: also called C3d-WT; TED domain
T3 sequence (P01024 996-1303 C1010A): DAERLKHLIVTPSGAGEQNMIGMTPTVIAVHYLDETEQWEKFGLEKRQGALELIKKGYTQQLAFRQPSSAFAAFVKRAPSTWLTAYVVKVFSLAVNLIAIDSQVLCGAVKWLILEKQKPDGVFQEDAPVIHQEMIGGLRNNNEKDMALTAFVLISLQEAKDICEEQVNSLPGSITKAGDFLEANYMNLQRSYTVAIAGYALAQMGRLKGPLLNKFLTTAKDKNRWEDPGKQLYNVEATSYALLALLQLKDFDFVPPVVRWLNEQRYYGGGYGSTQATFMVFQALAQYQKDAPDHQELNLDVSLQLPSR

With “human complement C3c (domain or fragment)” as the molecule, how does the Kd [1] read?
Its Kd is 750 nM.

How did the Kd [2] turn out when “human complement C3d (C3 residues 996-1303, C1010A) (from UniProt P01024 996-1303) (domain or fragment)” was run?
The Kd was 602 nM.

How did the Kd [1] turn out when “human complement C3b (from UniProt P01024 749-1663) (domain or fragment)” was run?
The Kd was 40 nM.

B1: ISG65 1125G (residues 24-385), biotinylated (domain or fragment)
chain: EDNRVPGDKNLTKEGAAALCKMKHLADKVAEKRSQELKDRTQNFAGYIEFELYRIDYWLEKLNGPKGRKDGYAKLSDSDIEKVKEIFDKAKDGIAKQLPEAKKAGEDAEKLHTEVKEAAANARGQDLDDHKQKSTGLYRVLNWYCITKEESHNATPNCDGIQFRNHYLSVNRSAIDCSSTGYEENYDWSANALQVALNSWENVKPKKLESAGSDENCNIGQSSESHPCTMTEEWQTHYKETVKKLKELEGAHEKGRRAHDAMLGYANTAYAVNTKVEQEKPLAEVIAAAKEAGKKGAKIIIPAAAPVTPTNSTKNEDSAPTEHVDRGIATNETQVEVGIDADFDGLLEAAEAAEVTRRHQKTGSGSGSASG
modifications: biotin on the AviTag
notes: also called ISG65G; ISG65 E1125G
Which Kd (Human complement C3c) does the source give for B1 here?
The Kd was 391 nM.

And the koff (Human complement C3c)?
Its koff is 0.008 s⁻¹.

What about the kon (Human complement C3c) of the same molecule?
Its kon is 20000 M⁻¹ s⁻¹.

What about the Kd (Human complement C3b) of the same molecule?
The Kd was 67 nM.

B2: ISG65 1125G (residues 24-385), expressed with kifunensine and treated with Endo Hf (domain or fragment)
chain: EDNRVPGDKNLTKEGAAALCKMKHLADKVAEKRSQELKDRTQNFAGYIEFELYRIDYWLEKLNGPKGRKDGYAKLSDSDIEKVKEIFDKAKDGIAKQLPEAKKAGEDAEKLHTEVKEAAANARGQDLDDHKQKSTGLYRVLNWYCITKEESHNATPNCDGIQFRNHYLSVNRSAIDCSSTGYEENYDWSANALQVALNSWENVKPKKLESAGSDENCNIGQSSESHPCTMTEEWQTHYKETVKKLKELEGAHEKGRRAHDAMLGYANTAYAVNTKVEQEKPLAEVIAAAKEAGKKGAKIIIPAAAPVTPTNSTKNEDSAPTEHVDRGIATNETQVEVGIDADFDGLLEAAEAAEVTRRHQKTGSGSGSASG
notes: also called ISG65G
Which results are given for B2?
Kd [3]: 514 nM; koff [3]: 0.1 s⁻¹; kon [3]: 300000 M⁻¹ s⁻¹
